A word on the EC50: it is the midpoint of the concentration-response curve. As a reminder, the Kd is the free concentration of one partner at which half of the binding sites on the other are occupied at equilibrium, for simple one-to-one binding. The term koff denotes the rate constant with which the complex falls apart. As a reminder, the kon is the second-order rate constant of association.

The target of assay [1] is T1, human ROR1 on stably transfected cells (NCI-H1993-ROR1, MDA-MB-468-ROR1, NCI-H1975-ROR1, 293T-ROR1-NF-kB) (human, UniProt Q01973 30-937). The assay can be described thus: cell-based or functional assay.
T1 sequence (Q01973 30-937 limits assumed): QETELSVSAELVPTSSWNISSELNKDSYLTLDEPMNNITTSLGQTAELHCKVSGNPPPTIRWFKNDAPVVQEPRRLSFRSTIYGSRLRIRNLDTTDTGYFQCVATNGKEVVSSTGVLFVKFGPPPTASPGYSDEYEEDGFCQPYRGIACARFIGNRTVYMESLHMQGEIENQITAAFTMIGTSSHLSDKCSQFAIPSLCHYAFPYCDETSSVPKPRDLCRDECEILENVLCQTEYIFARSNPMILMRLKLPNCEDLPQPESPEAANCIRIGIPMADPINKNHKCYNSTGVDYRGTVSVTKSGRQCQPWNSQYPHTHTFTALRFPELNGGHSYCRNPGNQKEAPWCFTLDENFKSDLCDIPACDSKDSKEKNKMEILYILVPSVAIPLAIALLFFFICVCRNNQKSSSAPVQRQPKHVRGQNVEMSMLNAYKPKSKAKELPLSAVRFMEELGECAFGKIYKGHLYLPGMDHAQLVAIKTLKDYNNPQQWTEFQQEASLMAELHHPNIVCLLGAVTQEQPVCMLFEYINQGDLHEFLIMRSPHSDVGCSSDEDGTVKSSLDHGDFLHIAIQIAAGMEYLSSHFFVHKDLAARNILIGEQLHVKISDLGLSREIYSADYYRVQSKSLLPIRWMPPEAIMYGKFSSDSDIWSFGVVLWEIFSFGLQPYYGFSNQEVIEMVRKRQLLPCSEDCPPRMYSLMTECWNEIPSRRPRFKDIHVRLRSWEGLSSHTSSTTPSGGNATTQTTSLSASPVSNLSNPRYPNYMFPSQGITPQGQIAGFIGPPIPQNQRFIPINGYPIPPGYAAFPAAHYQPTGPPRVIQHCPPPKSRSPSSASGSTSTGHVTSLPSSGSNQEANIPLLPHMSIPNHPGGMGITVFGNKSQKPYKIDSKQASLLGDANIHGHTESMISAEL
In assay [2] the target is T2, ROR1 naturally expressed on human tumor cell lines (A549, Jeko-1, SW620, PA-1) (human, UniProt Q01973 30-937).
T2 construct: whole, on cells; also called cells expressing ROR1
T2 sequence (Q01973 30-937): as the sequence (Q01973 30-937 limits assumed) above
The assay can be described thus: FACS on PA-1 cells naturally expressing ROR1.

Assay [3] addresses T2, ROR1 naturally expressed on human tumor …. The assay can be described thus: cell-based or functional assay.
In assay [4] the target is T1, human ROR1 on stably transfected cells …. The assay can be described thus: cell-based or functional assay. This is another data set of the same source.
The target of assay [5] is T2, ROR1 naturally expressed on human tumor …. The assay can be described thus: FACS on SW620 cells naturally expressing ROR1.
Assay [6] shares this target. The assay can be described thus: FACS on Jeko-1 cells naturally expressing ROR1.
Assay [7] addresses T3, human/cynomolgus monkey ROR1 protein (Acro Biosystems, Cat. No.: RO1-H522y) (human/cynomolgus monkey, UniProt Q01973 30-403).
T3 construct: Bought SPR analyte
The assay can be described thus: SPR (Biacore), antibody captured on anti-hIgG CM5 chip, ROR1 protein as analyte, method of Example 5. (Surface plasmon resonance follows binding to a sensor surface in real time, without labels.)

Assay [8] has as its target T2, ROR1 naturally expressed on human tumor …. The assay can be described thus: FACS on PA-1 cells naturally expressing ROR1. This is another data set of the same source.
The target of assay [9] is T3, human/cynomolgus monkey ROR1 protein …. The assay can be described thus: SPR (Biacore), antibody captured on anti-hIgG CM5 chip, ROR1 protein as analyte, 1:1 model.
Assay [10] has as its target T2, ROR1 naturally expressed on human tumor …. The assay can be described thus: FACS on A549 cells naturally expressing ROR1.
For assay [11] the target is unchanged. The assay can be described thus: FACS on SW620 cells naturally expressing ROR1. This is another data set of the same source.
Assay [12] shares this target. The assay can be described thus: FACS on SW620 cells naturally expressing ROR1. This is another data set of the same source.
Assay [13] shares this target. The assay can be described thus: FACS on Jeko-1 cells naturally expressing ROR1. The source holds these as a separate data set.
The target is the same in assay [14]. The assay can be described thus: FACS on Jeko-1 cells naturally expressing ROR1. This is another data set of the same source.
For assay [15] the target is unchanged. The assay can be described thus: FACS on PA-1 cells naturally expressing ROR1. The source holds these as a separate data set.
For assay [16] the target is unchanged. The assay can be described thus: FACS on SW620 cells naturally expressing ROR1. The source holds these as a separate data set.
Assay [17] has the same target. The assay can be described thus: FACS on Jeko-1 cells naturally expressing ROR1. This is another data set of the same source.

T3 sequence (Q01973 30-403 limits assumed): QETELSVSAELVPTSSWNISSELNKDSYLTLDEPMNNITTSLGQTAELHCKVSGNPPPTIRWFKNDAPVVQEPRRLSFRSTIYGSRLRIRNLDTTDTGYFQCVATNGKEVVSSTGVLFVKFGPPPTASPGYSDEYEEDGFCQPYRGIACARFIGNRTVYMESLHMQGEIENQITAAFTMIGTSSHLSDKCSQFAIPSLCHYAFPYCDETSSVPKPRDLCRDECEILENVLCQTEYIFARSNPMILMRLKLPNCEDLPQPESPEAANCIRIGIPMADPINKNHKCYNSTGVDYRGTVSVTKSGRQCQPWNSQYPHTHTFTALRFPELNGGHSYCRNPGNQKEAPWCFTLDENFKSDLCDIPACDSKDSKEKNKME

B1: hz29H5D8-3.2 (antibody, human IgG1, kappa, V domains shown)
VH: QVQLVQSGAEVKKPGSSVKVSCKASGYTFTNYGISWVRQAPGQGLEWMGEIYPRSVNTYYSAKFKGRVTITADKSTSTAYMELSSLRSEDTAVYYCARHYYGSSLDYWGQGTLVTVSS
VL: DIQMTQSPSSLSASVGDRVTITCITSSDIEDDMNWYQQKPGKAPKLLISEGNSLRPGVPSRFSSSGYGTDFTFTISSLQPEDIATYYCLQSDNIFTFGQGTKVEIKR
notes: Humanized, human IgG1/kappa
For B1, the “Internalization EC50 (nM), NCI-H1975-ROR1 cells, pH-dependent endocytosis reagent, FACS” value in assay [1] was 5.19 nM. Also, in [2], a half-maximal effect (EC50) was put at 0.087 nM and the “Top (MFI)” value came out at 244000 MFI. For the same molecule, the “ADCC reporter gene assay EC50 (nM), PA-1 target cells, recombinant Jurkat effector cells” value (“ADCC reporter gene assay EC50 (nM)” for short) in assay [3] was 0.06 nM. In [4], the “Internalization EC50 (nM), MDA-MB-468-ROR1 cells, pH-dependent endocytosis reagent, FACS” value worked out at 0.92 nM and the “Internalization EC50 (nM), NCI-H1993-ROR1 cells, pH-dependent endocytosis reagent, FACS” value came to 1.18 nM. Moreover, in [5], a half-maximal effect (EC50) was put at 0.01 nM and the “Top (MFI)” value worked out at 30700 MFI. For the same molecule, in [6], the response was half-maximal at 0.012 nM (EC50) and the “Top (MFI)” value was 89000 MFI. Besides, in [7], the Kd stood at 0.197 nM, the dissociation rate constant (koff) was 0.000354 s⁻¹ and the kon was 1.79e+06 M⁻¹ s⁻¹.

B2: UC-961 (antibody, V domains shown)
VH: QVQLQESGPGLVKPSQTLSLTCTVSGYAFTAYNIHWVRQAPGQGLEWMGSFDPYDGGSSYNQKFKDRLTISKDTSKNQVVLTMTNMDPVDTATYYCARGWYYFDYWGHGTLVTVSS
VL: DIVMTQTPLSLPVTPGEPASISCRASKSISKYLAWYQQKPGQAPRLLIYSGSTLQSGIPPRFSGSGYGTDFTLTINNIESEDAAYYFCQQHDESPYTFGEGTKVEIK
On to B2, for which the EC50 in assay [8] is 0.127 nM; in assay [10], 0.035 nM; in assay [2], 0.173 nM; in assay [11] it was 0.024 nM; in assay [12], 0.025 nM; in assay [5], 0.025 nM. The EC50 in assay [13] was found to be 0.019 nM; in assay [14], 0.019 nM; in assay [15], 0.127 nM; in assay [6], 0.021 nM; in assay [16], 0.025 nM; in assay [17], 0.019 nM. The “Top (MFI)” value came out at 232000 MFI in assay [8]; 75700 MFI in assay [10]; 235000 MFI in [2]; 23900 MFI in assay [11]; 26500 MFI in assay [12]; 26500 MFI in assay [5]. For the same molecule, the “Top (MFI)” value turned out to be 83200 MFI in assay [13]; 83200 MFI in [14]; 232000 MFI in [15]; 91700 MFI in assay [6]; 26500 MFI in assay [16]; 66100 MFI in assay [17]. Besides, in assay [1], the “Internalization EC50 (nM), NCI-H1975-ROR1 cells, pH-dependent endocytosis reagent, FACS” value came to 17.7 nM. Also, the Kd stood at 20.6 nM in assay [9] and 1.17 nM in assay [7]. The koff in assay [9] came to 0.0273 s⁻¹; in assay [7] it was 0.0018 s⁻¹. In addition, the on-rate (kon) in assay [9] was 1.33e+06 M⁻¹ s⁻¹; in assay [7], 1.54e+06 M⁻¹ s⁻¹. Moreover, the “ADCC reporter gene assay EC50 (nM)” value in [3] amounted to 0.27 nM. Moreover, in assay [4], the “Internalization EC50 (nM), MDA-MB-468-ROR1 cells, pH-dependent endocytosis reagent, FACS” value is 2.15 nM. Further, the “Internalization EC50 (nM), NCI-H1993-ROR1 cells, pH-dependent endocytosis reagent, FACS” value in assay [4] was found to be 2.06 nM.

B3: hz135A2B10-1.1 (antibody, human IgG1, kappa, V domains shown)
VH: QVQLVESGGGLVQPGGSLRLSCAASGFAFSTYGMAWVRQAPGKGLEWVASIHKGGFSTYYPDNVKGRFTISRDNAKNSLYLQMNSLRAEDTAVYYCARHDWDGAMDYWGQGTLVTVSS
VL: DIQMTQSPSSLSASVGDRVTITCKASQDINSYLNWYQQKPGKAPKTLIYRANRLVDGVPSRFSGSGSGQDYTLTISSLQPEDFATYYCLQFDEFPYTFGQGTKVEIKR
notes: Humanized, human IgG1/kappa
B3: in assay [8], the EC50 stood at 0.166 nM and the “Top (MFI)” value worked out at 250000 MFI. Also, in [1], the “Internalization EC50 (nM), NCI-H1975-ROR1 cells, pH-dependent endocytosis reagent, FACS” value was determined as 14.9 nM. Further, in assay [3], the “ADCC reporter gene assay EC50 (nM)” value stood at 0.13 nM. Further, in assay [4], the “Internalization EC50 (nM), MDA-MB-468-ROR1 cells, pH-dependent endocytosis reagent, FACS” value came to 1.39 nM and the “Internalization EC50 (nM), NCI-H1993-ROR1 cells, pH-dependent endocytosis reagent, FACS” value worked out at 1.16 nM. For the same molecule, in [12], a half-maximal response (EC50) required 0.022 nM and the “Top (MFI)” value was found to be 30300 MFI. In addition, in [14], the EC50 was 0.015 nM and the “Top (MFI)” value is 88300 MFI. Besides, in [7], the Kd stood at 0.527 nM, the koff came to 0.00051 s⁻¹ and the kon amounted to 968000 M⁻¹ s⁻¹.

For the origin of these results see EP4772535A1 (Chia Tai Tianqing Pharmaceutical Group Co., Ltd., dated 2026).
